# Results taken from paper PMC11740425.
# Experiments:
# [1] = target: TCR1 with the T30Q mutation in CDR-1A (human | mouse); experiment: flow cytometry on cells
# [2] = target: TCR1 with the T30Q mutation in CDR-1A (human | mouse)
substance,measurement,setting,value
KRAS^G12D peptide presented by HLA-A*11:01 (KRAS^G12D tetramer) (from UniProt P61769 21-119; P01116 7-16) (peptide-MHC),pMut-HLA binding positivity rate,[1],60%
same,EC50 (functional avidity) of TCR Jurkat cells for KRAS^G12D peptide,[2],53 nM
